Test results as given in article PMC11098746 (2024).

B1: ADP193 (protein)
chain: GEEKLTKFDPVMIKEGELFGEVSYDCEYSGFLEIENDDILYYCFFVGEDDHNGLLLRKFHMDDMVWGIPMEVLITRKKINLYILTVDYILSKLILIYSFDEKIRITVFNNYMEESVMSEKISINYEILYKANMISYITYFYKNKKSLCVCGMNRNENILCTFSFDYGLTMKDDHTIEFFLKKKIPLGHYKMQVTFKETEVYFNLYNDLNEANFYELKCVKKQDEYICDIMNKIRETQEYNYKRYTYPSSEHNKYYNDHHNKQPQGKQGQQGGAPLPNLGEEENNFIYKHIVRNKYFQMIVFQKDQKCYLAWSFNSLNINDEITKEISSVPCSNVASYYRQERLIVTLKKNQLGSRNHFFLIYEKLTEKGVGCEFGVGGSLYVTKTFMNNACDMDINNMNVATTNYDEINFALIIPLSFQLNYATCFIWEENVDNNEERSSLYYLEEYTNEKEDIKVYTFYFYKYILIYKNFKKSTCTFESKNNEKLYISFRGDTYYKEYNCNILLDSCDFFLHTQSKINIAYDDDVWQVSEELYDGFVMYNGAYVSLYDVLSRSNAHGLIYIDGKENNAAINLNNIKNNNNNNNNNNNNNNAANNNNIANNANSNNAFGEHEKVITIIIPYGIPSTRTIKIEFLNKQNNEEKRWAYLRLQKNEYIMKKVIGINSADIFDLSYKYYKYNQEKIKFILNDFSETTYLGFICQTKEEIKKSLCTISLVDHSHKNMAINNLFKTNNHILPFLYDQSPPRKIQPYNQIISEFRFVLFKNFHLFLQENKINYILLKCMCSSSSSYINTQKNIELSYLITNEQVSHDFIHTPGILIRPRTNIAHNDYQKNNKGNHKGNNKANNKANDKDSNNNANNNANKNGNNHNDNNNNNQNKDIDINSNYAIHNNNEKVKRTKKKINDAPYDKQDEELPSYDFNDLLHEKKNGASVFDFNFVLFLFICITFF
modifications: bait human Fc-tagged dimer; N-glycosylation sequons mutated in Plasmodium baits
B2: ADP172 (protein)
chain: YLEQIKNGISGHYTEDHNIKNNNCISFSDYERSIKNFAISSHAENNYDNIINEYKKIKDINNNINILSSVHRKGRILYDSFLEINKLENDKKEKHEKEDEYEDNDESFLETEEYEDNEDEKYNKDEDDYAESFIETDEYEDNEDDKYNKDEDDYSESFIETDEYDDNEEEQYNKDEDDYTDSFIETDHYENNDDKNEEEEEYNDQDNDYGYNFLETDEYDDSEEYDYDDKEYGESFLEKEEGEEMKDEEMKDEEMKDVEMKDEEMKDEEMKYDEMKNEEMKYDEMKDEVMKDEEMKDEVMKDEEMKDEQMKYEEFKNEESKNEESKNEESKNEESKNEEFKNEESKNEEFKNEEFKNEDMSYDEYMGYKKKEEDESYNTFNGAKKNNAANSFLEKDLQGDSDDELHSTFYSKNVDKENYDDKNIFYGYSDNDDESFLETDSYEEYEDEDKDVEDEYEESFLQNDEKKMVFYDLYKPEENEAYYEKKQKKEEKEEKEEKEQSLNKQNDMEDQEDNEEYKFEEENKEDLLDVQQDEELPSEGKQKVKGKSFDNEHLNEIQNVADVHAFIQKDMKYLDDLIDEEQTIKDAVKKSAYKGNKKLGNNKKSQMILEEEPEENFEEDADEELNKLMEQEKNIVDKEIKNSKANKANKKLQFNNANKQNKMYMKNEYNNKAKNNKNNKFEQQNYDESYMDDDYEQNEEFNDNNQAEDMKETNELDKINDELLTDQGPNEDTLLENNNKIFDNKFVAHKKREKSISPHSYQKVSTKVQNKEDMENKEEKQLINDEAAMTAEELVELENTEDVNTPTMVETEEIDSDENGNKAS
modifications: bait human Fc-tagged dimer; N-glycosylation sequons mutated in Plasmodium baits

Columns and labels:
Assay in all cases: AVEXIS screen signal:noise (double-corrected)
ADP375 = biological target: T1, ADP375
T1 chain: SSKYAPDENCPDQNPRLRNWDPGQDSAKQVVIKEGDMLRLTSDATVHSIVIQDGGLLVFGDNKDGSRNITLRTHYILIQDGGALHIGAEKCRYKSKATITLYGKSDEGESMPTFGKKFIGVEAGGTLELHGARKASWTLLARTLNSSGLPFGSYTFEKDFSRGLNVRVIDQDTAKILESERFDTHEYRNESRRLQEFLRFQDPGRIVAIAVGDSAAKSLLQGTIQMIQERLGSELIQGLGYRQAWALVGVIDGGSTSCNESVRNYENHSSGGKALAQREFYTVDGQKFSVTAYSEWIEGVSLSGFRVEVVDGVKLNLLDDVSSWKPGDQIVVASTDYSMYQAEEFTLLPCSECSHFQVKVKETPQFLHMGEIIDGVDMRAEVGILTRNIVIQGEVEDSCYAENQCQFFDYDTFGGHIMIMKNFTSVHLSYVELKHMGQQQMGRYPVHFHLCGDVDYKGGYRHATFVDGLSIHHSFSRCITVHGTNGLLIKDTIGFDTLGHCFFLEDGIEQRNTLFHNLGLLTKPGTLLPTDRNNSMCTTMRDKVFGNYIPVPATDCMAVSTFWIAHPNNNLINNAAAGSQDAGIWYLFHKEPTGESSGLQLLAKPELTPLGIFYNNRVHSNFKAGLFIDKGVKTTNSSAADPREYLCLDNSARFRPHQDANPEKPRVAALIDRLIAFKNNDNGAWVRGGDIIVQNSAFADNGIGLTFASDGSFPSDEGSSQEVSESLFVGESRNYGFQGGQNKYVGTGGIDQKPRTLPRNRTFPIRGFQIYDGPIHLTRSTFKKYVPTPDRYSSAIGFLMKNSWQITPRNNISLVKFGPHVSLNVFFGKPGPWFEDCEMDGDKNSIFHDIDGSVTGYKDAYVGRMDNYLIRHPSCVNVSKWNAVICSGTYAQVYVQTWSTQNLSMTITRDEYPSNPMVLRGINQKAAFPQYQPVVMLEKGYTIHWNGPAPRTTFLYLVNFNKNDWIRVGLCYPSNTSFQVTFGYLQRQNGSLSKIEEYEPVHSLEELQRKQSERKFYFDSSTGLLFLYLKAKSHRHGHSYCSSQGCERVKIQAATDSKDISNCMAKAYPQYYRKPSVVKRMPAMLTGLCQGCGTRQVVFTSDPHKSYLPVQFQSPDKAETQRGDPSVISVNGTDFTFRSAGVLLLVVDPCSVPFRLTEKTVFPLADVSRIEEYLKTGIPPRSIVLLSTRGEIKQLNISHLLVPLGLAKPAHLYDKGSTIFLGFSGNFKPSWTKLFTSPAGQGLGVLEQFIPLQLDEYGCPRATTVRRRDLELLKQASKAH

ADP326 = biological target: ADP326
ADP320 = biological target: T2, ADP320
T2 chain: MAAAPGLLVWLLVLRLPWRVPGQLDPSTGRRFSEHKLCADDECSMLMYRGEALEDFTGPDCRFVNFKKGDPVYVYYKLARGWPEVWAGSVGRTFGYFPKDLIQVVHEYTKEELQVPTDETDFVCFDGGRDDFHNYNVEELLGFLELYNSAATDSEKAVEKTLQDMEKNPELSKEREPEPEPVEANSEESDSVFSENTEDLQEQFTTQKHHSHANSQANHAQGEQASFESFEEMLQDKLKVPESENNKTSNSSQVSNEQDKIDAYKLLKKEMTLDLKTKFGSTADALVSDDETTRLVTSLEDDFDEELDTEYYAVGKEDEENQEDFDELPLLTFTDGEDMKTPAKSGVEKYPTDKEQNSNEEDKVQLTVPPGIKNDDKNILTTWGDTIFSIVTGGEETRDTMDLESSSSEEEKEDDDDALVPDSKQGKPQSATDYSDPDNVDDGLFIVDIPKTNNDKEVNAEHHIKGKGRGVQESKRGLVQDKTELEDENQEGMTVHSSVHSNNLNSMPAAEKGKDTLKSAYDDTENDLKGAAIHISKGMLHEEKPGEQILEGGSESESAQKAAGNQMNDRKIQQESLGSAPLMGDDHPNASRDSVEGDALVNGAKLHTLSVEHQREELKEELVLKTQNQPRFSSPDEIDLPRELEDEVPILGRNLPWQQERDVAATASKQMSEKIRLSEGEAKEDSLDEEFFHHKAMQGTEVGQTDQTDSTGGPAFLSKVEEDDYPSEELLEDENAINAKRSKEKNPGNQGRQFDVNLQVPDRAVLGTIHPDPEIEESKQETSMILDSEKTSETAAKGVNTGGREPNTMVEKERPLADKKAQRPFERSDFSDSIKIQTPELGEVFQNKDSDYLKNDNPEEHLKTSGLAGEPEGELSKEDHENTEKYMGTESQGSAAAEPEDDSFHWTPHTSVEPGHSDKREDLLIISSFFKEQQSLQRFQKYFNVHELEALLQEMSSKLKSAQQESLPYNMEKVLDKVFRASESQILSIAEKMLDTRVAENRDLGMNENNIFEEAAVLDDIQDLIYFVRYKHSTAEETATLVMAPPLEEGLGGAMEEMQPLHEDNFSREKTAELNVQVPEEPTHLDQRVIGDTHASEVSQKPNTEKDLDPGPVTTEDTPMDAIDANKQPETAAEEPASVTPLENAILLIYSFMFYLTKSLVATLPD

ADP389 = biological target: T3, ADP389
T3 chain: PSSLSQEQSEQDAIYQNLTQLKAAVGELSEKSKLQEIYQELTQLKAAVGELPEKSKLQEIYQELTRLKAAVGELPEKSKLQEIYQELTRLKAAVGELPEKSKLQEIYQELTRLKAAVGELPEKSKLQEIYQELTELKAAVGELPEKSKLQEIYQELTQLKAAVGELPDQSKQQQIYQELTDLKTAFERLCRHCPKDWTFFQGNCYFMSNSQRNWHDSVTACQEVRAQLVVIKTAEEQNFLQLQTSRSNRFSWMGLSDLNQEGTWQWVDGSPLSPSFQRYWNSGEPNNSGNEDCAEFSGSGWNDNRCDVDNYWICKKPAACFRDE

ADP334 = biological target: T4, ADP334
T4 chain: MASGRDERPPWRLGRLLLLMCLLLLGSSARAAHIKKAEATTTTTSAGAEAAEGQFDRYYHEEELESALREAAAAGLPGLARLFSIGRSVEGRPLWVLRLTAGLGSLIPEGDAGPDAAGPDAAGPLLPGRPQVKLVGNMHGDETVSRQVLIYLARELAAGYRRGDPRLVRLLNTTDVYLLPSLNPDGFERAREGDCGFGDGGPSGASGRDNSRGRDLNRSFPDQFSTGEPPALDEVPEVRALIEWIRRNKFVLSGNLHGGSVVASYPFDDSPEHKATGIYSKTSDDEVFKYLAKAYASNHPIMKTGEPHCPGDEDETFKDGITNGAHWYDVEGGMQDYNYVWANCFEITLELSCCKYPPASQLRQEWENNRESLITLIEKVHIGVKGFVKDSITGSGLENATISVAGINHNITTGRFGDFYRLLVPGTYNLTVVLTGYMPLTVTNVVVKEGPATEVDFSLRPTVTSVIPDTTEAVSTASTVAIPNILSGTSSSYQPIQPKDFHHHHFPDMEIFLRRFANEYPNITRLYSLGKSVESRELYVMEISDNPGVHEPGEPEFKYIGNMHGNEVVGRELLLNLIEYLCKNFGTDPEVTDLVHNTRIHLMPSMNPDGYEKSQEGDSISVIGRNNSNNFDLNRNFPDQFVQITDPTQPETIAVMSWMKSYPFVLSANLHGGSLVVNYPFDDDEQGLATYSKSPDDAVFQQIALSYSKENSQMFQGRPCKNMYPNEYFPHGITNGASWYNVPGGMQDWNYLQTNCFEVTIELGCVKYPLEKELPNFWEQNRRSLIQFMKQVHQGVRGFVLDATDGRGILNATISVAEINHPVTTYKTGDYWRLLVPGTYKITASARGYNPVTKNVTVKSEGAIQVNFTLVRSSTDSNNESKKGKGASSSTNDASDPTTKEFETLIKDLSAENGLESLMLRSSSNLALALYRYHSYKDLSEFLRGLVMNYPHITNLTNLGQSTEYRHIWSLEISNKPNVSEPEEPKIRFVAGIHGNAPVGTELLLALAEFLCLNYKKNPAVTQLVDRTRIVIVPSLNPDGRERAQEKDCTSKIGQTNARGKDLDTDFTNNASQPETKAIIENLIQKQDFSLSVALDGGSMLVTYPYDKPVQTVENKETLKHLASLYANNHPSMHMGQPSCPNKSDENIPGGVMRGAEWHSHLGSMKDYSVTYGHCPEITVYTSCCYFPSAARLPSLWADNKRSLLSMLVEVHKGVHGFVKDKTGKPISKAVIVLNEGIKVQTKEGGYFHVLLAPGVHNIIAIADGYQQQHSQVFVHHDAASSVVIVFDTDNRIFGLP

Row | Binder | binding score (ADP375) | binding score (ADP326) | binding score (ADP320) | binding score (ADP389) | binding score (ADP334)
1 | B1 | 8.14 | 9.3 | 7.53 |  | 
2 | B2 |  |  |  | 7.86 | 13.1
